Measured values taken from patent CN114989300A (BIO THERA SOLUTIONS LTD, dated 2022).

T1: 人TIGIT (TIGIT-Jurkat细胞表面) (human, UniProt Q495A1 22-244)
T1 construct: whole, on cells
T1 sequence (looked up): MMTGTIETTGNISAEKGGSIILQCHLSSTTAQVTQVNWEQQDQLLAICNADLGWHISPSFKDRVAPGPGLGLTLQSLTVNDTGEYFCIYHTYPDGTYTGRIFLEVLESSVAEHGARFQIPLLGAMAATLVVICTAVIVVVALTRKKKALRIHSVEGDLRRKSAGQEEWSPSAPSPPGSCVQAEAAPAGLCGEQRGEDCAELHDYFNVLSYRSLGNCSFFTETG


biological target: T1, 人TIGIT (TIGIT-Jurkat细胞表面); assay: flow cytometry; blocking of 12.5 nM biotinylated PVR-Fc binding to TIGIT-Jurkat cells

IC50 [nM] | Binder
2.82 | 参照抗体Tiragolumab (antibody, V domains shown) VH: EVQLQQSGPGLVKPSQTLSLTCAISGDSVSSNSAAWNWIRQSPSRGLEWLGKTYYRFKWYSDYAVSVKGRITINPDTSKNQFSLQLNSVTPEDTAVFYCTRESTTYDLLAGPFDYWGQGTLVTVSS VL: not shown
0.441 | 抗体h10D8OF (antibody, human IgG1, kappa, V domains shown, also called 抗TIGIT抗体) VH: QVQLVESGGGVVQPGRSLRLDCKASGFTFSSYGMSWVRQAPGKGLELVATINSNGGSTYYPDSVKGRFTISRDNSKNTLFLQMNSLRAEDTAVYYCARLGTGTLGFAYWGQGTLVTVSS VL: EIVMTQSPATLSLSPGERATLSCKASQDVKTAVSWYQQKPGQAPRLLIYWASTRATGIPARFSGSGSGTDYTLTISSLEPEDFAVYYCQQHYSTPWTFGQGTKVEIKR
0.742 | 抗体h10D8OFKF (antibody, human IgG1, kappa, V domains shown, fucosylation level about 0 (expressed in alpha-(1,6)-fucosyltransferase knockout CHO cells), also called 抗TIGIT抗体) VH: QVQLVESGGGVVQPGRSLRLDCKASGFTFSSYGMSWVRQAPGKGLELVATINSNGGSTYYPDSVKGRFTISRDNSKNTLFLQMNSLRAEDTAVYYCARLGTGTLGFAYWGQGTLVTVSS VL: EIVMTQSPATLSLSPGERATLSCKASQDVKTAVSWYQQKPGQAPRLLIYWASTRATGIPARFSGSGSGTDYTLTISSLEPEDFAVYYCQQHYSTPWTFGQGTKVEIKR
